From publication doi:10.1101/2022.11.09.515798 come the findings set out here.

The target in test [1] is Hyphochytrium catenoides kalium channelrhodopsin 1 (HcKCR1) (Hyphochytrium catenoides). Kind of test: cryo-EM structure.
Test [2] has as its target Hyphochytrium catenoides kalium channelrhodopsin 2 (HcKCR2) (Hyphochytrium catenoides). Briefly: cryo-EM structure.

The term stoichiometry N denotes the number of molecules, sites or subunits per partner or assembly.

For the substance “Hyphochytrium catenoides kalium channelrhodopsin 1 (HcKCR1) (natural protein)”, the stoichiometry N in test [1] amounted to 3.
Turning to “Hyphochytrium catenoides kalium channelrhodopsin 2 (HcKCR2) (natural protein)”, the stoichiometry N in test [2] came out at 3.
